Measured values from patent US10100114B2, “Antibodies specific for TROP-2 and their uses” (RINAT NEUROSCIENCE CORP., priority 2011, dated 2018).

Legend:
[1] = system: SW620 cells (Trop-2 non-expressing); test: Cytotoxicity of ADCs (CellTiter-Glo), SW620; format: cell-based; conditions: Table 13; SW620, Trop2 expression −; 96 hours; concentration of total Ab
Description: Target expressing (A431, BxPC3, CAPAN-2 and Colo205) or non-expressing (SW620) cells were seeded on white walled clear bottom plates at 2000 cells/well for 24 hours before treatment. Cells were treated with 4 fold serially diluted antibody-drug conjugates in triplicates. Cell viability was determined by CellTiter-Glo® Luminescent Cell Viability Assay 96 (Promega, Madison Wis.) 96 hours after treatment. Relative cell viability was determined as percentage of untreated control. IC50 was calculated by Prism software.
2-methylalanyl-N-[(3R,4S,5S)-3-methoxy-1-{(2S)-2-[(1R,2R)-1-methoxy-2-methyl-3-oxo-3-{[(1S)-2-phenyl-1-(1,3-thiazol-2-yl)ethyl]amino}propyl]pyrrolidin-1-yl}-5-methyl-1-oxoheptan-4-yl]-N-methyl-L-valinamide is a novel auristatin, as described in U.S. Application Nos. 61/561,255 and 61/676,423. Method of conjugating Trop-2 antibodies using transglutaminase tags is described in Example 9. Target expressing or non-expressing (SW620) cells were seeded on white walled clear bottom plates at 2000 (A431, BxPC3, NCI-H292, NCI-H1650, MDA-MB-468 and SW620), 2500 (Calu-3) or 3000 (OVCAR3 and SKBR3) cells per well for 24 hours before treatment. Cells were treated with 4 fold serially diluted antibody-drug conjugates in triplicates. Cell viability was determined by CellTiter-Glo® Luminescent Cell Viability Assay 96 (Promega, Madison, Wis.) 96 hours after treatment. Relative cell viability was determined as percentage of untreated control. IC50 was calculated by GraphPad Prism 5 software and expressed as concentration (nM) of total Ab.

Colo205 xenograft = test: In vivo efficacy of Trop-2 ADCs, colorectal tumor Colo205 xenograft model; design: species or system nu/nu mice; conditions: single dose of 6 mg/kg, tail vein; FIG. 10
Description: In vivo efficacy study of Trop-2 ADCs was performed with target-expressing colo205 xenograft model. Three millions of colo205 colon cancer cells were implanted subcutaneously into 5-8 weeks old nu/nu mice until the tumor sizes reached ˜300 mm^3. […] Tumor volume is measured once a week by a Caliper device and calculated with the following formula: Tumor volume=(length×width^2)/2. Studies were terminated before their tumor volumes reached 2000 mm^3.

human Trop-2-hFc = molecular target: T1, human Trop-2-hFc (Homo sapiens, UniProt P09758); test: Biacore SPR affinity of chimeric and humanized 7E6 Fab, human Trop-2; format: binding; conditions: recombinant Fab fragments injected over captured human Trop-2-hFc
T1 construct: Monomeric Trop-2 extracellular domain prepared from papain digestion of Trop-2-Fc fusion protein
T1 sequence (P09758 27-274 limits assumed): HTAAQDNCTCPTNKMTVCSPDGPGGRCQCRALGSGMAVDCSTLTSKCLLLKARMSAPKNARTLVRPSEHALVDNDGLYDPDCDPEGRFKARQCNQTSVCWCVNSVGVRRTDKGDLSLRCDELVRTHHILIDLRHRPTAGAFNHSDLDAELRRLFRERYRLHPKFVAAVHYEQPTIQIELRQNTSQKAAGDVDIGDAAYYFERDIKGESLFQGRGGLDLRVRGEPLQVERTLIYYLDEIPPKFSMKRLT
Excerpt: (§1) The human Trop-2-hFc or cynomolgus monkey Trop-2-hFc proteins were captured on the CM5 EDA chip 37 sensor surface coupled with anti-human Fc.

[2] = system: cynomolgus monkey Trop-2-hFc; test: Biacore SPR affinity of chimeric and humanized 7E6 Fab, cynomolgus Trop-2; format: binding; conditions: recombinant Fab fragments injected over captured cynomolgus monkey Trop-2-hFc
Excerpt: as §1

SW620 (Trop-2 −) cells = test: Flow cytometry binding, SW620 cells; format: cell-based; conditions: 1 ug antibody
Description: For A431 cell staining, 200,000 cells were incubated with 0.5 ug antibody in 100 uL binding buffer (PBS (Phosphate Buffered Saline)+0.5% BSA (Bovine Serum Albumin)), followed by incubation with Dylight488-conjugated goat anti-human (Fab′)2-specific secondary antibody from Jackson immunoresearch Laboratories (West Grove, Pa.). For Colo205 and SW620 cells, 300,000 cells were used with 1 ug of primary antibody, followed by AlexaFluor 647 anti-human (Fab′)2-specific secondary antibody from Jackson immunoresearch Laboratories (West Grove, Pa.).
Similar to Example 7a), binding of chimeric mouse and humanized anti-Trop-2 6G11 antibodies (expressed in human IgG1 subtype) were assessed on Trop-2 expressing (A431 and Colo205) and non-expressing (SW620) cells by flow cytometry. 300,000 cells were used with 1 ug of primary antibody, followed by AlexaFluor 647 anti-human (Fab′)2-specific secondary antibody.

human Trop2-ECD = molecular target: T2, human Trop2-ECD (Homo sapiens, UniProt P09758); test: Proteon XPR36 SPR of Fab/human Trop2-ECD interactions; format: binding; conditions: amine-coupled Fab; monovalent human Trop2-ECD 6, 30 and 150 nM; 25° C., pH 7.4
T2 sequence (P09758 27-274 limits assumed): T1 sequence (P09758 27-274 limits assumed)
Description: Analysis of Fab/human Trop2-ECD (Extracellular Domain) interactions was performed using a Bio-Rad Proteon XPR36 Surface Plasmon Resonance (SPR) biosensor (Bio-Rad, Hercules, Calif.) equipped with a GLC sensor chip. The assay temperature was 25° C., and the assay buffer was 10 mM Sodium Phosphate, 150 mM NaCl, 0.05% Tween-20, pH 7.4. An array of amine-coupled Fabs was prepared using the methodology described in Abdiche et al. (Anal. Biochem., 411: 139-151 (2011)). In each analysis cycle, monovalent human Trop2-ECD antigen was flowed at 30 μL/min over the immobilized Fabs for 3 minutes followed by a buffer wash for 15 minutes to monitor dissociation of the Fab/Trop2 complex. The sensor surface was regenerated between analysis cycles, using three 18-second injections of a 2:1 mixture (by volume) of Pierce IgG Elution buffer:4 M NaCl (Pierce, Rockford, Ill.). Binding and regeneration cycles were repeated at human Trop2-ECD concentrations of 6, 30 and 150 nM. The resulting data were fit to a 1:1 Langmuir binding model using the Proteon evaluation software.

huTrop-2 = molecular target: T3, huTrop-2 (Homo sapiens, UniProt P09758); test: Biacore SPR affinity of anti-Trop-2 mouse antibodies; format: binding; conditions: mouse IgG captured by anti-mouse IgG; monomeric Trop-2 extracellular domain as analyte
T3 construct: Monomeric Trop-2 extracellular domain prepared from papain digestion of Trop-2-Fc fusion protein; Fc (cleaved yes); made in house
T3 sequence (P09758 27-274 limits assumed): T1 sequence (P09758 27-274 limits assumed)
Description: The affinities of anti-Trop-2 mouse antibodies generated from hybridomas were measured on a surface plasmon resonance Biacore™ 2000 or 3000 biosensor equipped with a research-grade CM5 sensor chip (Biacore™ AB, Uppsala, Sweden—now GE Healthcare). Anti-mouse IgG was first amine coupled to the CM5 sensor surface. Various anti-Trop-2 mouse IgGs were then captured by anti-mouse IgG. Monomeric Trop-2 extracellular domain prepared from papain digestion of Trop-2-Fc fusion protein was then injected as the analyte at 3 fold dilution series. […]

[3] = system: human Trop-2 domains swapped with Trop-1 (EpCAM) or mouse Trop-2 equivalent regions; test: Domain mapping by domain swapping (Biacore); format: binding; conditions: for Binding to Trop-2 domain hybrid, domain 1: domain 1 replaced; for Binding to Trop-2 domain hybrid, domain 2: domain 2 replaced; for Binding to Trop-2 domain hybrid, domain 3: domain 3 replaced; for Binding to Trop-2 domain hybrid, domain 4: domain 4 replaced
Description: Domain mapping was done by swapping the Trop-2 extracellular domains with either Trop-1 (EpCAM) or mouse Trop-2 equivalent regions. […] These hybrid proteins were expressed as human Fc fusion proteins in 293F cells. Binding of anti-Trop-2 antibodies to these domain hybrids were determined by Biacore. […] Table 5. Definition of different domains of Trop-2 can be found, e.g., in Chong et al., J. Biol. Chem. 276(8):5804-13, 2001.

human Trop-1 = molecular target: T4, human Trop-1 (Homo sapiens, UniProt P16422, M115T); test: Binding to human Trop-1; conditions: recombinant mouse IgG2a
T4 sequence (P16422 24-314 M115T): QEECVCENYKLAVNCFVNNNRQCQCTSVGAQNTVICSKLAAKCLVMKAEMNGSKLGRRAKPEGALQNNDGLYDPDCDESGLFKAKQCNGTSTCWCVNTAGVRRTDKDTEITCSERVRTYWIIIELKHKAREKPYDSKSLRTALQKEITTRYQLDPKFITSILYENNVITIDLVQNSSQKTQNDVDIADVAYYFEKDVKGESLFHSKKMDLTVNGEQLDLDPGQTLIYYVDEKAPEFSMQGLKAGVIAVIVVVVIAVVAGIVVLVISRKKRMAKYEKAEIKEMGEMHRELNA

mouse Trop-2 = molecular target: T5, mouse Trop-2 (Mus musculus, UniProt Q8BGV3); test: Binding to mouse Trop-2; conditions: recombinant mouse IgG2a
T5 sequence (Q8BGV3 25-317): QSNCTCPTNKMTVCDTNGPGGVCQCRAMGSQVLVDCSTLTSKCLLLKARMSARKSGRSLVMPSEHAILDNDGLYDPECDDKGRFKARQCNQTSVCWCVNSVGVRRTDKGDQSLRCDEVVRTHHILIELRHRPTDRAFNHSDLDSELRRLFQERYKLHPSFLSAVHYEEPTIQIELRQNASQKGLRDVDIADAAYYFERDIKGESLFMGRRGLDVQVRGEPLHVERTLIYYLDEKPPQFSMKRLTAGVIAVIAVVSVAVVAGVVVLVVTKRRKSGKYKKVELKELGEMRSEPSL

A431 xenograft = test: In vivo efficacy of anti-Trop-2 mouse IgGs, A431 xenograft model; design: species or system nu/nu mice; conditions: 20 mg/kg once a week, 3 doses
Description: In vivo efficacy studies of anti-Trop-2 mouse IgGs were performed with target-expressing A431 xenograft model. Two million A431 epidermoid cancer cells were implanted subcutaneously into 5-8 weeks old nu/nu mice until the tumor sizes reached around 100 mm^3. Animals were randomized by tumor sizes and dosing was done through bolus tail vein injection. Anti-Trop-2 antibodies were expressed as recombinant mouse IgG2a antibodies from 293F transient expression. […] Tumor volume was measured twice a week by a caliper device and calculated with the following formula: Tumor volume=(length×width^2)/2. Studies were terminated before tumor volumes reached 2000 mm^3. TGI (% tumor growth inhibition) was determined as [1-tumor sizes (treatment group)/tumor size (control group)]×100.

B1: h7E6SVG-LCQ03/K222R-vc0101: h7E6SVG K222R with light chain LCQ03 tag (SEQ ID NO: 78) conjugated with AcLys-vc-PABC-0101 (conjugate)
VH: QVQLQESGPGLVKPSETLSLTCTVSGGSISSYGVHWIRQPPGKGLEWIGVIWTSGVTDYNSALMGRVTISVDTSKNQFSLKLSSVTAADTAVYYCARDGDYDRYTMDYWGQGTLVTVSS
VL: DIVMTQSPDSLAVSLGERATINCRASKSVSTSGYSYMHWYQQKPGQPPKLLIYLASNLESGVPDRFSGSGSGTDFTLTISSLQAEDVAVYYCQHSRELPYTFGQGTKLEIK
IC50 [1]: > 267 nM | tumor response, Colo205 xenograft (Colo205 xenograft): tumor regression

B2: h7E6_SVG: humanized anti-Trop-2 antibody, VL SEQ ID NO: 3, VH SEQ ID NO: 5 (antibody, V domains shown)
VH: B1 VH
VL: B1 VL
ka (human Trop-2-hFc): 97600 M⁻¹ s⁻¹ | kd (human Trop-2-hFc): 0.000435 s⁻¹ | ka [2]: 265000 M⁻¹ s⁻¹ | kd [2]: 0.00189 s⁻¹ | % positive (SW620 (Trop-2 −) cells; Table 10, 300,000 cells): 2.4% | MFI (SW620 (Trop-2 −) cells; Table 10, 300,000 cells): 139 | ka (human Trop2-ECD): 170000 M⁻¹ s⁻¹ | kd (human Trop2-ECD): 0.00069 s⁻¹

B3: 6G11: anti-Trop-2 mouse antibody, VL SEQ ID NO: 8, VH SEQ ID NO: 9; also used as chimeric human IgG1 (antibody, V domains shown)
VH: QVQLQQPGAELVRPGASVKLSCKASGYTFTSYWINWVKQRPGHGLEWIGNIYPSDSYSNYNQKFKDKATLTVDKSSSTAYMQVSSPTSEDSAVYYCTYGSSFDYWGQGTTVTVSS
VL: DILLTQSPAILSVSPGERVSFSCRASQTIGTSIHWYQQRTNGSPRLLIKYASESISGIPSRFSGSGSGTDFTLSINSVESEDIADYYCQQSNSWPFTFGSGTKLEIK
ka (huTrop-2): 270000 M⁻¹ s⁻¹ | kd (huTrop-2): 0.0086 s⁻¹ | human Trop-2 domains bound ([3]; defined by loss or reduction in binding on domain swapping): domain 1 | Binding to Trop-2 domain hybrid, domain 1 ([3]; domain replacement hTrop1): + | Binding to Trop-2 domain hybrid, domain 2 ([3]; domain replacement hTrop1): − | Binding to Trop-2 domain hybrid, domain 3 ([3]; domain replacement hTrop1): − | Binding to Trop-2 domain hybrid, domain 4 ([3]; domain replacement hTrop1): − | Binding to Trop-2 domain hybrid, domain 1 ([3]; domain replacement mTrop-2): + | Binding to Trop-2 domain hybrid, domain 2 ([3]; domain replacement mTrop-2): − | Binding to Trop-2 domain hybrid, domain 3 ([3]; domain replacement mTrop-2): − | Binding to Trop-2 domain hybrid, domain 4 ([3]; domain replacement mTrop-2): − | binding to human Trop-1 (human Trop-1): do not bind | binding to mouse Trop-2 (mouse Trop-2): do not bind | A431 xenograft tumor growth in vivo (A431 xenograft): inhibit A431 xenograft tumor growth | Mean tumor volume (mm3) on day 27 (A431 xenograft; Table 7C): 444.8 mm3 | TGI (Tumor growth inhibition) (A431 xenograft; Table 7C): 57% | % positive (SW620 (Trop-2 −) cells; Table 11, 300,000 cells): 2.5% | MFI (SW620 (Trop-2 −) cells; Table 11, 300,000 cells): 134
